# From US10808249B2, “Methods and compositions for weed control” (Monsanto Technology LLC, priority 2011, dated 2020)
# Tested on: Glyphosate-sensitive Palmer amaranth (A. palmeri R-22) plants
# Experiment: Palmer amaranth pre-treated with PDS trigger oligonucleotides, then norflurazon
# Format: in vivo, Amaranthus palmeri
# Details: mixture of oligonucleotides incl. SEQ ID NO: 2137 at 0.8 nmol, 0.5% Silwet L-77; norflurazon 675 g ai/ha 24 and 48 h later; compared with norflurazon alone
# Method: Glyphosate-sensitive Palmer amaranth (A. palmeri R-22) plants were grown in the greenhouse (30/20 C day/night T; 14 hour photoperiod) in 4 inch square pots containing Sun Gro® Redi-Earth and 3.5 kg/cubic meter Osmocote® 14-14-14 fertilizer. Palmer amaranth plants at 5 to 10 cm in height were pre-treated with a mixture of oligonucleotides one of which was a SEQ ID NO: 2137 at 0.8 nmol comprising at least one oligonucleotide targeting PDS coding or noncoding regions, formulated in 10 millimolar sodium phosphate buffer (pH 6.8) containing 2% ammonium sulfate and 0.5% Silwet L-77. Plants were treated manually by pipetting 10 μL of polynucleotide solution on four fully expanded mature leaves, for a total of 40 microliters of solution per plant. Twenty-four and forty-eight hours later, the plants were treated with norflurazon (Solicam®, Syngenta, Greensboro, N.C.) at 675 g ai/ha, crop oil concentrate (COC) at 1% is added to the herbicide treatments. Four replications of each treatment was conducted. Plant height is determined just before ssDNA treatment and at intervals upto twelve days after herbicide treatments to determine effect of the oligonucleotide and herbicide treatments.
molecule,measurement,value
"SEQ ID NO: 2137: ssDNA trigger oligonucleotide targeting PDS, one of a mixture applied to Palmer amaranth before norflurazon (nucleic acid, listed as Amaranthus palmeri) antisense: ACCGAUUCCUGCAGGAGAAACAUGGUUCUAAGAUGGCCUUCCUAGACGGAAACCCUCCAGAGAGGCUGUGCAUGCCUAUUGUUAAACACAUCGAGUCACUAGGUGGUGAAGUUAAACUUAACUCUCGUAUACAAAAGAUUCAGUUGGACCAGAGUGGAAGCGUGAAGAGUUUUUUGCUAAAUAACGGGAGG",injury to the plants (FIG. 1),more injury to the plants than the norflurazon alone
